# Measurements taken from the Human Domainome abundance scans (Beltran et al. 2025).
# ± gives the uncertainty stated by the source.
# B1: POU domain, class 2, transcription factor 1, residues 285 to 354; numbered along this chain, P14859 (parent)
# chain: LEELEQFAKTFKQRRIKLGFTQGDVGLAMGKLYGNDFSQTTISRFEALNLSFKNMCKLKPLLEKWLNDAE
# Variants of: B1
# Assay: abundance fitness (aPCA) (normalised: wild type 0, dead -1); higher = more abundant; growth selection in yeast, the domain comes from the species named
# Conditions: Homo sapiens
row,Variant,abundance fitness
1,LEELEQFAKTFKQRRIKLGFTQGDVGLAMGKLYGNDFSQCTISRFEALNLSFKNMCKLKPLLEKWLNDAE,0.019 ± 0.097
2,LEELEQFAKTFKQRRIKLGFTQGDVGLAMGKLYGNDFSQHTISRFEALNLSFKNMCKLKPLLEKWLNDAE,-0.035 ± 0.072
3,LEELEQFAKTFKQRRIKLGFTQGDVGLAMGKLYGNDFSQRTISRFEALNLSFKNMCKLKPLLEKWLNDAE,0.014 ± 0.024
4,LEELEQFAKTFKQRRIKLGFTQGDVGLAMGKLYGNDFSQWTISRFEALNLSFKNMCKLKPLLEKWLNDAE,-0.054 ± 0.049
5,LEELEQFAKTFKQRRIKLGFTQGDVGLAMGKLYGNDFSQETISRFEALNLSFKNMCKLKPLLEKWLNDAE,-0.354 ± 0.25
6,LEELEQFAKTFKQRRIKLGFTQGDVGLAMGKLYGNDFSQGTISRFEALNLSFKNMCKLKPLLEKWLNDAE,-0.028 ± 0.06
7,LEELEQFAKTFKQRRIKLGFTQGDVGLAMGKLYGNDFSQSTISRFEALNLSFKNMCKLKPLLEKWLNDAE,-0.007 ± 0.032
8,LEELEQFAKTFKQRRIKLGFTQGDVGLAMGKLYGNDFSQYTISRFEALNLSFKNMCKLKPLLEKWLNDAE,0.077 ± 0.21
9,LEELEQFAKTFKQRRIKLGFTQGDVGLAMGKLYGNDFSQDTISRFEALNLSFKNMCKLKPLLEKWLNDAE,-0.15 ± 0.11
10,LEELEQFAKTFKQRRIKLGFTQGDVGLAMGKLYGNDFSQKTISRFEALNLSFKNMCKLKPLLEKWLNDAE,-0.071 ± 0.087
11,LEELEQFAKTFKQRRIKLGFTQGDVGLAMGKLYGNDFSQPTISRFEALNLSFKNMCKLKPLLEKWLNDAE,-0.032 ± 0.023
12,LEELEQFAKTFKQRRIKLGFTQGDVGLAMGKLYGNDFSQLTISRFEALNLSFKNMCKLKPLLEKWLNDAE,-0.001 ± 0.019
13,LEELEQFAKTFKQRRIKLGFTQGDVGLAMGKLYGNDFSQNTISRFEALNLSFKNMCKLKPLLEKWLNDAE,0.004 ± 0.13
14,LEELEQFAKTFKQRRIKLGFTQGDVGLAMGKLYGNDFSQITISRFEALNLSFKNMCKLKPLLEKWLNDAE,-0.142 ± 0.078
15,LEELEQFAKTFKQRRIKLGFTQGDVGLAMGKLYGNDFSQQTISRFEALNLSFKNMCKLKPLLEKWLNDAE,0.016 ± 0.041
16,LEELEQFAKTFKQRRIKLGFTQGDVGLAMGKLYGNDFSQMTISRFEALNLSFKNMCKLKPLLEKWLNDAE,-0.059 ± 0.039
17,LEELEQFAKTFKQRRIKLGFTQGDVGLAMGKLYGNDFSQFTISRFEALNLSFKNMCKLKPLLEKWLNDAE,0.067 ± 0.068
18,LEELEQFAKTFKQRRIKLGFTQGDVGLAMGKLYGNDFRQTTISRFEALNLSFKNMCKLKPLLEKWLNDAE,-0.061 ± 0.02
19,LEELEQFAKTFKQRRIKLGFTQGDVGLAMGKLYGNDFYQTTISRFEALNLSFKNMCKLKPLLEKWLNDAE,-0.271 ± 0.23
20,LEELEQFAKTFKQRRIKLGFTQGDVGLAMGKLYGNDFQQTTISRFEALNLSFKNMCKLKPLLEKWLNDAE,-0.03 ± 0.021

row,Variant,abundance fitness
1,LEELEQFAKTFKQRRIKLGFTQGDVGLAMGKLYGNDFTQTTISRFEALNLSFKNMCKLKPLLEKWLNDAE,0.012 ± 0.02
2,LEELEQFAKTFKQRRIKLGFTQGDVGLAMGKLYGNDFSGTTISRFEALNLSFKNMCKLKPLLEKWLNDAE,0.005 ± 0.02
3,LEELEQFAKTFKQRRIKLGFTQGDVGLAMGKLYGNDFSPTTISRFEALNLSFKNMCKLKPLLEKWLNDAE,-0.011 ± 0.021
4,LEELEQFAKTFKQRRIKLGFTQGDVGLAMGKLYGNDFSLTTISRFEALNLSFKNMCKLKPLLEKWLNDAE,-0.026 ± 0.036
5,LEELEQFAKTFKQRRIKLGFTQGDVGLAMGKLYGNDFSTTTISRFEALNLSFKNMCKLKPLLEKWLNDAE,0.008 ± 0.035
6,LEELEQFAKTFKQRRIKLGFTQGDVGLAMGKLYGNDFSDTTISRFEALNLSFKNMCKLKPLLEKWLNDAE,0.008 ± 0.036
7,LEELEQFAKTFKQRRIKLGFTQGDVGLAMGKLYGNDFSATTISRFEALNLSFKNMCKLKPLLEKWLNDAE,0.015 ± 0.02
8,LEELEQFAKTFKQRRIKLGFTQGDVGLAMGKLYGNDFSCTTISRFEALNLSFKNMCKLKPLLEKWLNDAE,-0.037 ± 0.048
9,LEELEQFAKTFKQRRIKLGFTQGDVGLAMGKLYGNDFSHTTISRFEALNLSFKNMCKLKPLLEKWLNDAE,0.028 ± 0.039
10,LEELEQFAKTFKQRRIKLGFTQGDVGLAMGKLYGNDFSWTTISRFEALNLSFKNMCKLKPLLEKWLNDAE,-0.005 ± 0.037
11,LEELEQFAKTFKQRRIKLGFTQGDVGLAMGKLYGNDFSITTISRFEALNLSFKNMCKLKPLLEKWLNDAE,-0.057 ± 0.062
12,LEELEQFAKTFKQRRIKLGFTQGDVGLAMGKLYGNDFSRTTISRFEALNLSFKNMCKLKPLLEKWLNDAE,0.005 ± 0.021
13,LEELEQFAKTFKQRRIKLGFTQGDVGLAMGKLYGNDFSKTTISRFEALNLSFKNMCKLKPLLEKWLNDAE,0.014 ± 0.04
14,LEELEQFAKTFKQRRIKLGFTQGDVGLAMGKLYGNDFSMTTISRFEALNLSFKNMCKLKPLLEKWLNDAE,-0.056 ± 0.066
15,LEELEQFAKTFKQRRIKLGFTQGDVGLAMGKLYGNDFSVTTISRFEALNLSFKNMCKLKPLLEKWLNDAE,-0.033 ± 0.029
16,LEELEQFAKTFKQRRIKLGFTQGDVGLAMGKLYGNDFSSTTISRFEALNLSFKNMCKLKPLLEKWLNDAE,0.015 ± 0.03
17,LEELEQFAKTFKQRRIKLGFTQGDVGLAMGKLYGNDFSFTTISRFEALNLSFKNMCKLKPLLEKWLNDAE,-0.14 ± 0.1
18,LEELEQFAKTFKQRRIKLGFTQGDVGLAMGKLYGNDFSNTTISRFEALNLSFKNMCKLKPLLEKWLNDAE,-0.055 ± 0.062
19,LEELEQFAKTFKQRRIKLGFTQGDVGLAMGKLYGNDFSETTISRFEALNLSFKNMCKLKPLLEKWLNDAE,0.013 ± 0.03
